Data taken from the RNAGym collection of RNA variant scans (doi:10.1073/pnas.2313332121).

B1: TPR t1 (parent)
chain: GACCAAUCUGCCCUCAGAGCUCGAGAACAUCUUCGGAUGCAGAGGAGGCAGGCUUCGGUGGCGCGAUAGCGCCAACGUCCUCAACCUCCAAUGCAUCCCACCACAUGAUGAUGCCUGAAGAGCCUUGGUUUUUUG

Variants of: B1
Assay: polymerase ribozyme fitness, log enrichment relative to wild type (log ratio); higher = more active; in vitro selection for triplet polymerase activity
Procedure, shortened: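 Mutant libraries of each subunit of a heterodimeric triplet polymerase ribozyme were built by PCR and transcribed. Each library went through one round of in vitro selection in triplicate: annealing with biotinylated primer, partner subunit and triplets, frozen incubation at −7 °C, gel excision of extended constructs, streptavidin-bead capture and RT-PCR. Input and output libraries were Illumina-sequenced; only genotypes with ≥10 input reads and ≥1 read per output were kept. Fitness is log2(genotype enrichment/wild-type enrichment), using inverse-variance-weighted replicate averages.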

| Variant | polymerase ribozyme fitness (log ratio) |
| --- | --- |
| G61A U87A | 0.597 |
| U33C C101A A121U | -4.76 |
| G117U C123A | -2.17 |
| G10U U54A | -1.28 |
| C13G G61A C82A | -2.32 |
| A29U C97A A121U | -4.33 |
| C12G A43U G45C C73A U78A U92G | -2.67 |
| A29U G63U U78C | -4.96 |
| C73U C94U | -0.847 |
| A27C G42C G71U G120C U126A U130G | -6.82 |
| A24G G57A | -2.62 |
| A84G G120A C123A | -0.958 |
| C31A C70A A83C G113U A118G | -6.98 |
| U7G C11G U33A A90G C101A | -6.24 |
| C3G C49U C72U U131A | -4.85 |
| G36C C40A A74C G93C | -2.45 |
| G113A G117A | -4.4 |
| C11G U33C G63A C99U A111C | -7.29 |
| U81A C101A G110C U131G G135U | -7.53 |
| G42U G45A | -1.25 |
| C34A C53A G61C | -5.6 |

| Variant | polymerase ribozyme fitness (log ratio) |
| --- | --- |
| C20U G61A | -1.13 |
| C20U A29G C49A G58A A74U U81A U112A | -3.14 |
| U21G G93A C114G | -4.94 |
| A46C G69C C85A | -3.49 |
| A103U A118G | -5.56 |
| G47A C101U | -1.23 |
| A5G C79U | 0.091 |
| A37C C102A | -2.31 |
| A6U A46U U116A | -4.28 |
| U9A G77U | 1.05 |
| C73U G113C | -1.54 |
| C4U A6U U78G C88U A91U A95U | -3.57 |
| C3A C70U | -1.64 |
| C12A C40G | -1.7 |
| U30A C56A C82A U87A C114G G122A | -6.34 |
| G71U C98U | -2.33 |
| C56G C85U | -0.934 |
| C15G U59A G63C | -2.33 |
| C70U C79G C114A | -6.1 |
| G51U G61C G117C U131G | -7.34 |
| G51A C64G C101G G113A C123A | -6.84 |

| Variant | polymerase ribozyme fitness (log ratio) |
| --- | --- |
| U21A G61C | -1.97 |
| C53U A95C C115A | 0.802 |
| U81G C86U G120U U133A | -4.01 |
| C70U G113A C123A | -2.31 |
| C22G A95G C104U | -2.37 |
| C8G G39A C79A C82A C85A C114U | -4.81 |
| U54C G61A U81A U96A | -1.36 |
| C3A U9G G61C G113C | -4.85 |
| A41C U92G G120U U129C | -2.62 |
| U54G G122A G128C | -2.84 |
| G42A G93A C114U | -3.01 |
| C49U G60C G127A | -2.38 |
| G45C C80U U87A | -2.93 |
| C3U G61C | -2.38 |
| A24C A91U G117U C123G | -7.92 |
| G69C G93U | -2.49 |
| G69C U132A | -2.03 |
| A2U U7G C22A U33G C72U G120C | -7 |
| C56G C72U | -1.05 |
| C89U G113C G120C | -3.26 |
| G61U C79A C102U | -3.26 |

| Variant | polymerase ribozyme fitness (log ratio) |
| --- | --- |
| C86U U96A U106G | -4.25 |
| C8U G36A | -0.0427 |
| U7C C124G | 1.82 |
| C70G A90C | -4.87 |
| G45A C64A | -6.18 |
| U14C G69U A83U C114G C123G | -1.4 |
| C53G C70U U78C U106G | -3.34 |
| A43G A46U U112G | -3.43 |
| A41U G57C | -1.91 |
| G45A U131A | -0.734 |
| U14A G36C G47A | -4.55 |
| G19A C72A | -2.12 |
| G35A G117C | -6.51 |
| U7A C56A C94U | -0.558 |
| A6U C22A C49U | -4.97 |
| A6U A100C U106A | 0.0954 |
| C34U C85U C102U | -3.64 |
| G52A U92G | -2.95 |
| C20A G65A C94G A105G G110A U125G G128U | -5.13 |
| U59C A105U | -2.63 |
| C13U U21G | 0.0383 |
